In patent US20160272683A1 (Novo Nordisk, published 2016):
Values belong to the binder of their own block, whether it stands above or below them. * marks the point of attachment. C18 diacid = O=C(O)CCCCCCCCCCCCCCCCC(=O)*

Target: T1, human calcitonin receptor (human, UniProt P30988 25-474)
T1 construct: whole, on cells; also called hCT-R; hCTR
T1 sequence (looked up): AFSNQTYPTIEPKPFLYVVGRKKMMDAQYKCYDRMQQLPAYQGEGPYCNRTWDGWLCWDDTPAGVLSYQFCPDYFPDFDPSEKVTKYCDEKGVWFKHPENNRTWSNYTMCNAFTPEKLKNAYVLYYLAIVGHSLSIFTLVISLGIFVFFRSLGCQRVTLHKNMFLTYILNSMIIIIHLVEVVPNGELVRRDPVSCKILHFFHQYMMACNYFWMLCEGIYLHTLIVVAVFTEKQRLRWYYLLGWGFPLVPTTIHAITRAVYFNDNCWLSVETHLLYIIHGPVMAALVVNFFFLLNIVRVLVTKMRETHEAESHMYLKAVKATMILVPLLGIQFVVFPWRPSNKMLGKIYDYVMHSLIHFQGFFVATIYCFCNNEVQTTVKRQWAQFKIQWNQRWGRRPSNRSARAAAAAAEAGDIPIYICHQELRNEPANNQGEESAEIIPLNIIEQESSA
Experiment: whole-cell competition vs 125I-human calcitonin (Assay VIIa)
Experimental: The binding assay was performed using a BHK tk'ts 13 cell line was stably transfected with the human calcitonin receptor, and a CRE-responsive luciferase reporter gene.
The day before the assay the cells were Seeded into Poly-D-Lysin coated 384W Opaque White, BD BioCoat plates (10000 cells/well) and Incubated overnight at 37° C., 5% CO2, 95% humidity. […] The morning after, the plates were washed three times in HBSS (4° C.), and lyzed in Lysis buffer (0.1 M NaOH), 1% SDS. Scintillation cocktail (MicroScint40®) was added and the plates were shaken at 500 rpm for a short period. The plate was incubated at room temperature in the dark for 1 hour and Read on a TopCounter™ (Packard). The IC₅₀ was calculated using (one site binding competition analysis) GraphPad Prism5 as a measure of receptor affinity.

B2: [N-terminal(C18 diacid), 5I, 9I, 10I, 20I]mimylin (peptide)
peptide: {C18 diacid}-EASEISTAIIGRLSAELHEIATLPRTETGPESP-NH2
SMILES: CC[C@H](C)[C@H](NC(=O)[C@H](C)NC(=O)[C@@H](NC(=O)[C@H](CO)NC(=O)[C@@H](NC(=O)[C@H](CCC(=O)O)NC(=O)[C@H](CO)NC(=O)[C@H](C)NC(=O)[C@H](CCC(=O)O)NC(=O)CCCCCCCCCCCCCCCCC(=O)O)[C@@H](C)CC)[C@@H](C)O)C(=O)N[C@H](C(=O)NCC(=O)N[C@@H](CCCNC(=N)N)C(=O)N[C@@H](CC(C)C)C(=O)N[C@@H](CO)C(=O)N[C@@H](C)C(=O)N[C@@H](CCC(=O)O)C(=O)N[C@@H](CC(C)C)C(=O)N[C@@H](Cc1c[nH]cn1)C(=O)N[C@@H](CCC(=O)O)C(=O)N[C@H](C(=O)N[C@@H](C)C(=O)N[C@H](C(=O)N[C@@H](CC(C)C)C(=O)N1CCC[C@H]1C(=O)N[C@@H](CCCNC(=N)N)C(=O)N[C@H](C(=O)N[C@@H](CCC(=O)O)C(=O)N[C@H](C(=O)NCC(=O)N1CCC[C@H]1C(=O)N[C@@H](CCC(=O)O)C(=O)N[C@@H](CO)C(=O)N1CCC[C@H]1C(N)=O)[C@@H](C)O)[C@@H](C)O)[C@@H](C)O)[C@@H](C)CC)[C@@H](C)CC
notes: also called Ex. #77
- IC50: 1.1 nM

B4: [N-terminal(C18 diacid), 5V, 9V]mimylin (peptide)
peptide: {C18 diacid}-EASEVSTAVLGRLSAELHELATLPRTETGPESP-NH2
SMILES: CC(C)C[C@H](NC(=O)[C@H](CCC(=O)O)NC(=O)[C@H](Cc1c[nH]cn1)NC(=O)[C@H](CC(C)C)NC(=O)[C@H](CCC(=O)O)NC(=O)[C@H](C)NC(=O)[C@H](CO)NC(=O)[C@H](CC(C)C)NC(=O)[C@H](CCCNC(=N)N)NC(=O)CNC(=O)[C@H](CC(C)C)NC(=O)[C@@H](NC(=O)[C@H](C)NC(=O)[C@@H](NC(=O)[C@H](CO)NC(=O)[C@@H](NC(=O)[C@H](CCC(=O)O)NC(=O)[C@H](CO)NC(=O)[C@H](C)NC(=O)[C@H](CCC(=O)O)NC(=O)CCCCCCCCCCCCCCCCC(=O)O)C(C)C)[C@@H](C)O)C(C)C)C(=O)N[C@@H](C)C(=O)N[C@H](C(=O)N[C@@H](CC(C)C)C(=O)N1CCC[C@H]1C(=O)N[C@@H](CCCNC(=N)N)C(=O)N[C@H](C(=O)N[C@@H](CCC(=O)O)C(=O)N[C@H](C(=O)NCC(=O)N1CCC[C@H]1C(=O)N[C@@H](CCC(=O)O)C(=O)N[C@@H](CO)C(=O)N1CCC[C@H]1C(N)=O)[C@@H](C)O)[C@@H](C)O)[C@@H](C)O
notes: also called Ex. #24
- IC50: 0.749 nM

B7: [N-terminal(C18 diacid), 6H]mimylin (peptide)
peptide: {C18 diacid}-EASELHTAALGRLSAELHELATLPRTETGPESP-NH2
SMILES: CC(C)C[C@H](NC(=O)[C@H](C)NC(=O)[C@H](C)NC(=O)[C@@H](NC(=O)[C@H](Cc1c[nH]cn1)NC(=O)[C@H](CC(C)C)NC(=O)[C@H](CCC(=O)O)NC(=O)[C@H](CO)NC(=O)[C@H](C)NC(=O)[C@H](CCC(=O)O)NC(=O)CCCCCCCCCCCCCCCCC(=O)O)[C@@H](C)O)C(=O)NCC(=O)N[C@@H](CCCNC(=N)N)C(=O)N[C@@H](CC(C)C)C(=O)N[C@@H](CO)C(=O)N[C@@H](C)C(=O)N[C@@H](CCC(=O)O)C(=O)N[C@@H](CC(C)C)C(=O)N[C@@H](Cc1c[nH]cn1)C(=O)N[C@@H](CCC(=O)O)C(=O)N[C@@H](CC(C)C)C(=O)N[C@@H](C)C(=O)N[C@H](C(=O)N[C@@H](CC(C)C)C(=O)N1CCC[C@H]1C(=O)N[C@@H](CCCNC(=N)N)C(=O)N[C@H](C(=O)N[C@@H](CCC(=O)O)C(=O)N[C@H](C(=O)NCC(=O)N1CCC[C@H]1C(=O)N[C@@H](CCC(=O)O)C(=O)N[C@@H](CO)C(=O)N1CCC[C@H]1C(N)=O)[C@@H](C)O)[C@@H](C)O)[C@@H](C)O
notes: also called Ex. #16
- IC50: 0.981 nM

Binders with a lower IC50, results first:

- IC50: 0.577 nM
B1: [N-terminal(C18 diacid), 5H]mimylin (peptide)
peptide: {C18 diacid}-EASEHSTAALGRLSAELHELATLPRTETGPESP-NH2
SMILES: CC(C)C[C@H](NC(=O)[C@H](C)NC(=O)[C@H](C)NC(=O)[C@@H](NC(=O)[C@H](CO)NC(=O)[C@H](Cc1c[nH]cn1)NC(=O)[C@H](CCC(=O)O)NC(=O)[C@H](CO)NC(=O)[C@H](C)NC(=O)[C@H](CCC(=O)O)NC(=O)CCCCCCCCCCCCCCCCC(=O)O)[C@@H](C)O)C(=O)NCC(=O)N[C@@H](CCCNC(=N)N)C(=O)N[C@@H](CC(C)C)C(=O)N[C@@H](CO)C(=O)N[C@@H](C)C(=O)N[C@@H](CCC(=O)O)C(=O)N[C@@H](CC(C)C)C(=O)N[C@@H](Cc1c[nH]cn1)C(=O)N[C@@H](CCC(=O)O)C(=O)N[C@@H](CC(C)C)C(=O)N[C@@H](C)C(=O)N[C@H](C(=O)N[C@@H](CC(C)C)C(=O)N1CCC[C@H]1C(=O)N[C@@H](CCCNC(=N)N)C(=O)N[C@H](C(=O)N[C@@H](CCC(=O)O)C(=O)N[C@H](C(=O)NCC(=O)N1CCC[C@H]1C(=O)N[C@@H](CCC(=O)O)C(=O)N[C@@H](CO)C(=O)N1CCC[C@H]1C(N)=O)[C@@H](C)O)[C@@H](C)O)[C@@H](C)O
notes: also called Ex. #17

- IC50: 0.473 nM
B5: [N-terminal(C18 diacid), 8L]mimylin (peptide)
peptide: {C18 diacid}-EASELSTLALGRLSAELHELATLPRTETGPESP-NH2
SMILES: CC(C)C[C@H](NC(=O)[C@H](C)NC(=O)[C@H](CC(C)C)NC(=O)[C@@H](NC(=O)[C@H](CO)NC(=O)[C@H](CC(C)C)NC(=O)[C@H](CCC(=O)O)NC(=O)[C@H](CO)NC(=O)[C@H](C)NC(=O)[C@H](CCC(=O)O)NC(=O)CCCCCCCCCCCCCCCCC(=O)O)[C@@H](C)O)C(=O)NCC(=O)N[C@@H](CCCNC(=N)N)C(=O)N[C@@H](CC(C)C)C(=O)N[C@@H](CO)C(=O)N[C@@H](C)C(=O)N[C@@H](CCC(=O)O)C(=O)N[C@@H](CC(C)C)C(=O)N[C@@H](Cc1c[nH]cn1)C(=O)N[C@@H](CCC(=O)O)C(=O)N[C@@H](CC(C)C)C(=O)N[C@@H](C)C(=O)N[C@H](C(=O)N[C@@H](CC(C)C)C(=O)N1CCC[C@H]1C(=O)N[C@@H](CCCNC(=N)N)C(=O)N[C@H](C(=O)N[C@@H](CCC(=O)O)C(=O)N[C@H](C(=O)NCC(=O)N1CCC[C@H]1C(=O)N[C@@H](CCC(=O)O)C(=O)N[C@@H](CO)C(=O)N1CCC[C@H]1C(N)=O)[C@@H](C)O)[C@@H](C)O)[C@@H](C)O
notes: also called Ex. #15

- IC50: 0.413 nM
B6: [N-terminal(C18 diacid), 5I, 9I]mimylin (peptide)
peptide: {C18 diacid}-EASEISTAILGRLSAELHELATLPRTETGPESP-NH2
SMILES: CC[C@H](C)[C@H](NC(=O)[C@H](C)NC(=O)[C@@H](NC(=O)[C@H](CO)NC(=O)[C@@H](NC(=O)[C@H](CCC(=O)O)NC(=O)[C@H](CO)NC(=O)[C@H](C)NC(=O)[C@H](CCC(=O)O)NC(=O)CCCCCCCCCCCCCCCCC(=O)O)[C@@H](C)CC)[C@@H](C)O)C(=O)N[C@@H](CC(C)C)C(=O)NCC(=O)N[C@@H](CCCNC(=N)N)C(=O)N[C@@H](CC(C)C)C(=O)N[C@@H](CO)C(=O)N[C@@H](C)C(=O)N[C@@H](CCC(=O)O)C(=O)N[C@@H](CC(C)C)C(=O)N[C@@H](Cc1c[nH]cn1)C(=O)N[C@@H](CCC(=O)O)C(=O)N[C@@H](CC(C)C)C(=O)N[C@@H](C)C(=O)N[C@H](C(=O)N[C@@H](CC(C)C)C(=O)N1CCC[C@H]1C(=O)N[C@@H](CCCNC(=N)N)C(=O)N[C@H](C(=O)N[C@@H](CCC(=O)O)C(=O)N[C@H](C(=O)NCC(=O)N1CCC[C@H]1C(=O)N[C@@H](CCC(=O)O)C(=O)N[C@@H](CO)C(=O)N1CCC[C@H]1C(N)=O)[C@@H](C)O)[C@@H](C)O)[C@@H](C)O
notes: also called Ex. #25

- IC50: 0.368 nM
B3: [N-terminal(C18 diacid), 5I]mimylin (peptide)
peptide: {C18 diacid}-EASEISTAALGRLSAELHELATLPRTETGPESP-NH2
SMILES: CC[C@H](C)[C@H](NC(=O)[C@H](CCC(=O)O)NC(=O)[C@H](CO)NC(=O)[C@H](C)NC(=O)[C@H](CCC(=O)O)NC(=O)CCCCCCCCCCCCCCCCC(=O)O)C(=O)N[C@@H](CO)C(=O)N[C@H](C(=O)N[C@@H](C)C(=O)N[C@@H](C)C(=O)N[C@@H](CC(C)C)C(=O)NCC(=O)N[C@@H](CCCNC(=N)N)C(=O)N[C@@H](CC(C)C)C(=O)N[C@@H](CO)C(=O)N[C@@H](C)C(=O)N[C@@H](CCC(=O)O)C(=O)N[C@@H](CC(C)C)C(=O)N[C@@H](Cc1c[nH]cn1)C(=O)N[C@@H](CCC(=O)O)C(=O)N[C@@H](CC(C)C)C(=O)N[C@@H](C)C(=O)N[C@H](C(=O)N[C@@H](CC(C)C)C(=O)N1CCC[C@H]1C(=O)N[C@@H](CCCNC(=N)N)C(=O)N[C@H](C(=O)N[C@@H](CCC(=O)O)C(=O)N[C@H](C(=O)NCC(=O)N1CCC[C@H]1C(=O)N[C@@H](CCC(=O)O)C(=O)N[C@@H](CO)C(=O)N1CCC[C@H]1C(N)=O)[C@@H](C)O)[C@@H](C)O)[C@@H](C)O)[C@@H](C)O
notes: also called Ex. #8
